Article PMC9496217, “Structural Basis of a Novel Agonistic Anti-OX40 Antibody” (Biomolecules, 2022)

Key:
Settings in all cases: both partners purified
[1] = target: T1, human OX40 extracellular domain (recombinant, C-terminal His tag) (Homo sapiens); assay: BLI; DF004 (10 μg/mL) loaded on protein A sensors; OX40 variants as two-fold serial dilutions in PBS with 1% BSA; association 120 s, dissociation up to 320 s; Octet K2
T1 construct: OX40 (TNFRSF4, CD134), human, extracellular domain (four cysteine-rich domains CRD1-4); The deposited entries 8AG1 and 7YK4 hold the construct; also called hOX40; TNFRSF4; source: HEK293F, transient expression, purified (HisTrap, Superdex 200 gel filtration)
T1 chain: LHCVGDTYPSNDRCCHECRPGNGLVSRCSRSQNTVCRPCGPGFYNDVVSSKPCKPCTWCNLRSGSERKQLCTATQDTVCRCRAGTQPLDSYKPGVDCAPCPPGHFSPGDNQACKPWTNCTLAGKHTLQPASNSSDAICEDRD

[2] = target: T2, OX40-G70A (human, UniProt P43489, G70A); assay: as above
T2 construct: OX40 (TNFRSF4), human, extracellular domain with G70A; Tag and host are told for recombinant OX40 in general, not for the variants by name; also called G70A variant of human OX40; source: HEK293F, transient expression, purified (told for recombinant human OX40 in general)

[3] = target: T1, human OX40 extracellular domain …; assay: ELISA; human OX40 variants coated on a 96-well plate; serially diluted antibody added for 2 h at 37 °C; detected with goat (Fab')2 anti-human IgG Fc (HRP)

- Kd [1]: 4.39 nM
- fold decrease of binding affinity against wild-type OX40 (kd value) [2]: ~32 fold
- EC50 [3]: ~0.09 nM
B1: DF004 (full antibody, IgG1) (antibody, V domains shown)
VH: QVQLQQSGPGLVKPSQTLSLTCAISGDSVSSNSVSWDWIRQSPSRGLEWLGRTYYRSKWYNEYAVSVESRITINPDTSKNQFSLQLNSVTPEDTAIYFCVRNDYFFDLWGRGTLVTVSS
VL: EIVLTQSPATLSLSPGERATLSCRASQSVGSYLAWYQQKPGQAPRLLIYDASNRATGIPARFSGSGSGTDFTLTISSLEPEDFAVYYCQQRSNWPPGYTFGQGTKLEIK
notes: VH of DF004, as in the heavy chain (VH-CH1) of m3; IgG1 constant region; as the light chain (VL-CL) of m3; IgG1; scFv clone from a yeast display library made from PBMCs of healthy human donors, variable fragments grafted onto IgG1 Fc; source: HEK293F, transient expression, purified from the expression medium (protein A column)
